Experimental data reported in the supplement of paper PMC9112550, “Optimization of the antimicrobial peptide Bac7 by deep mutational scanning” (BMC Biology, 2022).

Test system: Escherichia coli TOP10
Assay: shrunken log2 fold change of peptide-encoding DNA abundance (4.5 h post-induction vs induction); higher = less antimicrobial activity (less host growth inhibition)
Conditions: time post-induction: 4.5 h; library: site-saturation at positions 5, 18, 19, 20
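Further: peptides expressed intracellularly from a pBAD plasmid library in pooled LB shake-flask culture, induced with 0.3% L-arabinose, DNA abundance read by NGS, three biological replicates, DESeq2 with apeglm shrinkage.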

Sequence | shrunken log2 fold change
RRIRFRPPRLPRPRPRPSMIPRP | -0.603
RRIRVRPPRLPRPRPRPWHGPRP | -0.121
RRIRARPPRLPRPRPRPFKVPRP | 0.0346
RRIRLRPPRLPRPRPRPNAEPRP | 0.143
RRIRERPPRLPRPRPRPSVYPRP | -0.493
RRIRNRPPRLPRPRPRPERHPRP | 0.204
RRIRFRPPRLPRPRPRPHMHPRP | -0.655
RRIRRRPPRLPRPRPRPGAYPRP | 0.00783
RRIRCRPPRLPRPRPRPGWFPRP | 0.0546
RRIRVRPPRLPRPRPRPNIVPRP | 0.000276
RRIRIRPPRLPRPRPRPLHVPRP | -0.135
RRIRIRPPRLPRPRPRPACIPRP | -0.69
RRIRLRPPRLPRPRPRPHVTPRP | -0.198
RRIRKRPPRLPRPRPRPHTNPRP | 0.192
RRIRDRPPRLPRPRPRPKKIPRP | 0.0726
RRIRPRPPRLPRPRPRPRCTPRP | 0.753
RRIRRRPPRLPRPRPRPEKVPRP | 0.448
RRIRRRPPRLPRPRPRPEKEPRP | 0.224
RRIRTRPPRLPRPRPRPQCWPRP | -0.19
RRIRIRPPRLPRPRPRPKKWPRP | -0.00764

Sequence | shrunken log2 fold change
RRIRWRPPRLPRPRPRPTMAPRP | 0.449
RRIRHRPPRLPRPRPRPIYVPRP | -0.0627
RRIRGRPPRLPRPRPRPDDEPRP | 1.27
RRIRERPPRLPRPRPRPFDIPRP | -0.103
RRIRNRPPRLPRPRPRPCDRPRP | 0.0883
RRIRMRPPRLPRPRPRPGFQPRP | 0.151
RRIRTRPPRLPRPRPRPLHNPRP | -0.557
RRIRFRPPRLPRPRPRPTPLPRP | 0.3
RRIRQRPPRLPRPRPRPFFFPRP | 0.0337
RRIRRRPPRLPRPRPRPNNCPRP | 0.129
RRIRVRPPRLPRPRPRPNFCPRP | -0.139
RRIRPRPPRLPRPRPRPESGPRP | 0.415
RRIRLRPPRLPRPRPRPWQGPRP | -0.00192
RRIRHRPPRLPRPRPRPCNYPRP | -0.084
RRIRNRPPRLPRPRPRPDRRPRP | -0.115
RRIRNRPPRLPRPRPRPWWIPRP | -0.00145
RRIRSRPPRLPRPRPRPPCCPRP | -0.107
RRIRCRPPRLPRPRPRPTKGPRP | -0.0938
RRIRRRPPRLPRPRPRPEQIPRP | 0.0197
RRIRTRPPRLPRPRPRPGRNPRP | -0.0275

Sequence | shrunken log2 fold change
RRIRLRPPRLPRPRPRPALTPRP | 0.129
RRIRVRPPRLPRPRPRPNNEPRP | -0.301
RRIRFRPPRLPRPRPRPQTHPRP | -0.151
RRIRKRPPRLPRPRPRPHRPPRP | 0.172
RRIRFRPPRLPRPRPRPANNPRP | -0.917
RRIRTRPPRLPRPRPRPWQCPRP | 0.00408
RRIRRRPPRLPRPRPRPCFWPRP | 0.406
RRIRCRPPRLPRPRPRPRRHPRP | -0.0331
RRIRGRPPRLPRPRPRPNLNPRP | 0.0742
RRIRWRPPRLPRPRPRPGCTPRP | 0.194
RRIRQRPPRLPRPRPRPAYHPRP | -0.826
RRIRIRPPRLPRPRPRPWVIPRP | -0.0141
RRIRSRPPRLPRPRPRPAAKPRP | 0.155
RRIRMRPPRLPRPRPRPYGYPRP | 0.0362
RRIRQRPPRLPRPRPRPFTSPRP | -0.00281
RRIRDRPPRLPRPRPRPIIAPRP | 0.0706
RRIRARPPRLPRPRPRPNCKPRP | -0.0213
RRIRYRPPRLPRPRPRPPSRPRP | 0.232
RRIRNRPPRLPRPRPRPPATPRP | 0.615
RRIRMRPPRLPRPRPRPLGHPRP | 0.751
